Measurements taken from paper PMC3265493, “Inhibitory Potential of Prodomain of Plasmodium falciparum Protease Serine Repeat Antigen 5 for Asexual Blood Stages of Parasite” (PLoS ONE, 2012).

Molecular target: T1, SERA5 catalytic domain (SERA5 C) (Plasmodium falciparum 3D7, UniProt Q9TY95 578-828)
T1 construct: Plasmodium falciparum 3D7 serine repeat antigen 5 (SERA5), PlasmoDB PFB0340c, 251-residue enzyme (catalytic) domain E578 to N828, amplified from cDNA; Cloned in pProExHTb between BamHI and XhoI with N-terminal hexahistidine tag; no tag removal is described; also called enzyme domain
T1 sequence: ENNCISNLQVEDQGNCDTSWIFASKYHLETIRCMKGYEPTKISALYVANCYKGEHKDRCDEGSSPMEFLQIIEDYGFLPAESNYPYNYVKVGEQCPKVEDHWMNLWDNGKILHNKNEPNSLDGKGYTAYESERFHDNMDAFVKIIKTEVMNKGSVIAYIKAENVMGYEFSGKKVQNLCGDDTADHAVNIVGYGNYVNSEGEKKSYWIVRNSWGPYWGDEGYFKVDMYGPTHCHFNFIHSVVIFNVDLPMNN
Test: CD spectroscopy; CD spectra of SERA5 C (5 uM) in PBS pH 7.4 alone and with 5 uM peptide (1:1 molar ratio), 25 C
Settings: both partners purified

B1: heptapeptide DNSDNMF (D560 to F566 of SERA5 sequence) (peptide)
peptide: DNSDNMF
notes: C-terminal region of the prodomain of Plasmodium falciparum serine repeat antigen 5 (SERA5), residues D560 to F566; Made on Rink amide resin, so the C-terminus is probably an amide; also called the heptapeptide; the peptide; source: synthetic peptide (solid phase, Fmoc chemistry, Rink Amide MHBA resin; RP-HPLC purified)
binding result: binds
